The text below walks through data of the supplement of paper PMC10567573.

To fix the notation:
B1: PHTF1 (parent)
chain: RVKLISNKGTETDNDPSCVHPIIK
B2: CHCHD6 (parent)
chain: MYKLSSEQFHEAASKMESTIKPRR
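Also: lentivirally expressed fusions sorted by FACS into six bins by GFP to DsRed ratio, PSI derived from sequencing read proportions per bin multiplied by bin number.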

In one data set the parent is B1. Briefly: protein stability index of a GFP-peptide fusion (GPS, HEK-293T) (PSI 1-6); higher = more stable. The following applies: c terminus: a fixed tail appended.
Consider RVNLISNKGTETDNDPSCVHPIIK [K3N], for which the protein stability index stood at 4.32. On the same count and under the same terms, the result for RVGLISNKGTETDNDPSCVHPIIK [K3G] reads 4.31.

As to RVQLISNKGTETDNDPSCVHPIIK [K3Q], the protein stability index is 4.07. Turning to RVLLISNKGTETDNDPSCVHPIIK [K3L], the protein stability index was 2.72. On to RVMLISNKGTETDNDPSCVHPIIK [K3M], for which the protein stability index came to 3.67. Consider RVRLISNKGTETDNDPSCVHPIIK [K3R], for which the protein stability index amounted to 3.92. Still for that read-out and setting: the same measure for RVHLISNKGTETDNDPSCVHPIIK [K3H]: 3.83; for RVKLISNKGTETDNDPSCTHPIIK [V19T]: 4.36.

For the variant RVKLISNKGTETDNDPSCKHPIIK [V19K], the protein stability index stood at 4.28. Still for that read-out and setting: the same measure for RVKLISNKGTETDNDPSCNHPIIK [V19N]: 4.38. RVKLISNKGTETDNDPSCQHPIIK [V19Q]: the protein stability index amounted to 4.21. Still for that read-out and setting: the result for RVKLISNKGTETDNDPSCPHPIIK [V19P] reads 4.64. Still for that read-out and setting: the same measure for RVKLISNKGTETDNDPSCEHPIIK [V19E]: 4.32. With RVKLISNKGTETDNDPSCLHPIIK [V19L], the protein stability index turned out to be 3.68.

On to RVKLISNKGTETDNDPSCGHPIIK [V19G], for which the protein stability index amounted to 3.89. Same read-out and setting: the result for RVKLISNKGTETDNDPSCFHPIIK [V19F] reads 3.31; that for RVKLISNKGTETDNDPTCVHPIIK [S17T], 4.27. On the same count and under the same terms, the same measure for RVKLISNKGTETDNDPNCVHPIIK [S17N]: 4.01. With RVKLISNKGTETDNDPKCVHPIIK [S17K], the protein stability index was found to be 4.22. Same read-out and setting: the same measure for RVKLISNKGTETDNDPHCVHPIIK [S17H]: 4.06; for RVKLISNKGTETDNDPQCVHPIIK [S17Q]: 4.18. On the same count and under the same terms, the result for RVKLISNKGTETVNDPSCVHPIIK [D13V] reads 3.5; that for RVKLISNKGTETLNDPSCVHPIIK [D13L], 3.4. Same read-out and setting: the result for RVKLISNKGTETQNDPSCVHPIIK [D13Q] reads 3.9; that for RVKLISNKGTETSNDPSCVHPIIK [D13S], 3.85; that for RVKLISNKGTETANDPSCVHPIIK [D13A], 3.72. For the variant RVKLISNKGTETFNDPSCVHPIIK [D13F], the protein stability index came to 2.96. On to RVKLISNKGTESDNDPSCVHPIIK [T12S], for which the protein stability index is 4.09.

With RVKLISNKGTEMDNDPSCVHPIIK [T12M], the protein stability index was found to be 3.44. Still for that read-out and setting: the result for RVKLISNKGTELDNDPSCVHPIIK [T12L] reads 3.61. Consider RVKLISNKGTEKDNDPSCVHPIIK [T12K], for which the protein stability index came out at 4.49. For the variant RVKLISNKGTEEDNDPSCVHPIIK [T12E], the protein stability index amounted to 4.53.

Regarding RVKLISNKGTEADNDPSCVHPIIK [T12A], the protein stability index was 4.11.

Regarding RVKLISNKGTEWDNDPSCVHPIIK [T12W], the protein stability index turned out to be 3.11. The same measure, in the same setting: the result for RVKLISNKGTETDNDPSCVHPRIK [I22R] reads 4.53; that for RVKLISNKGTETDNDPSCVHPYIK [I22Y], 4.23; that for RVKLISNKGTETDNDPSCVHPSIK [I22S], 4.6. With RVKLISNKGTETDNDPSCVHPWIK [I22W], the protein stability index was determined as 3.68.

With RVKLISNKGTETDNDPSCVHPLIK [I22L], the protein stability index was determined as 4.22.

Consider RVKLISNKGTETDNDPSCVHPQIK [I22Q], for which the protein stability index was 4.22. As to RVKLISNKGTETDNDPSCVHPCIK [I22C], the protein stability index is 3.84.

For RVKLISNKGTETDNDPSCVHPEIK [I22E], the protein stability index turned out to be 4.38.

Turning to RVKQISNKGTETDNDPSCVHPIIK [L4Q], the protein stability index is 5.02. The same measure, in the same setting: the result for RVKYISNKGTETDNDPSCVHPIIK [L4Y] reads 3.77; that for RVKTISNKGTETDNDPSCVHPIIK [L4T], 4.84.

Consider RVKGISNKGTETDNDPSCVHPIIK [L4G], for which the protein stability index stood at 4.44. The same measure, in the same setting: the same measure for RVKCISNKGTETDNDPSCVHPIIK [L4C]: 4.48; for RVKLIKNKGTETDNDPSCVHPIIK [S6K]: 4.36; for RVKLIVNKGTETDNDPSCVHPIIK [S6V]: 3.52. The same measure, in the same setting: the same measure for RVKLIANKGTETDNDPSCVHPIIK [S6A]: 4; for RVKLINNKGTETDNDPSCVHPIIK [S6N]: 4.26; for RVKLIDNKGTETDNDPSCVHPIIK [S6D]: 4.49. The same measure, in the same setting: the result for RVKLIYNKGTETDNDPSCVHPIIK [S6Y] reads 3.34; that for RVKLISNKGPETDNDPSCVHPIIK [T10P], 4.29; that for RVKLISNKGAETDNDPSCVHPIIK [T10A], 4.2.

In the case of RVKLISNKGNETDNDPSCVHPIIK [T10N], the protein stability index amounted to 4.2. The same measure, in the same setting: the result for RVKLISNKGVETDNDPSCVHPIIK [T10V] reads 3.38; that for RVKLISNKGRETDNDPSCVHPIIK [T10R], 3.91; that for RVKLISNKGWETDNDPSCVHPIIK [T10W], 2.66.

Regarding RVKLISNKGKETDNDPSCVHPIIK [T10K], the protein stability index was 3.95. The same measure, in the same setting: the result for RVKLISNKGQETDNDPSCVHPIIK [T10Q] reads 4.51. Same read-out and setting: the result for RVKLWSNKGTETDNDPSCVHPIIK [I5W] reads 3.6; that for RVKLRSNKGTETDNDPSCVHPIIK [I5R], 3.86.

As for RVKLLSNKGTETDNDPSCVHPIIK [I5L], the protein stability index was 4.4. On the same count and under the same terms, the same measure for RVKLVSNKGTETDNDPSCVHPIIK [I5V]: 4. As to RVKLASNKGTETDNDPSCVHPIIK [I5A], the protein stability index turned out to be 4.11. On the same count and under the same terms, the result for RVKLCSNKGTETDNDPSCVHPIIK [I5C] reads 3.97. On the same count and under the same terms, the same measure for RVKLFSNKGTETDNDPSCVHPIIK [I5F]: 4.02.

Turning to RVKLISNKDTETDNDPSCVHPIIK [G9D], the protein stability index is 4.36.

For RVKLISNKKTETDNDPSCVHPIIK [G9K], the protein stability index was 3.98. With RVKLISNKMTETDNDPSCVHPIIK [G9M], the protein stability index turned out to be 3.75. Still for that read-out and setting: the result for RVKLISNKHTETDNDPSCVHPIIK [G9H] reads 4.03; that for RVKLISNKQTETDNDPSCVHPIIK [G9Q], 4.31; that for RVKLISNKATETDNDPSCVHPIIK [G9A], 4.12. Still for that read-out and setting: the result for RVKLISNKITETDNDPSCVHPIIK [G9I] reads 3.25; that for RVKLISNKWTETDNDPSCVHPIIK [G9W], 2.8; that for RVKLISNKCTETDNDPSCVHPIIK [G9C], 3.56.

As to RVKLISNKRTETDNDPSCVHPIIK [G9R], the protein stability index worked out at 3.54. Still for that read-out and setting: the result for RVKLISNKFTETDNDPSCVHPIIK [G9F] reads 3.19; that for RVKLISNKPTETDNDPSCVHPIIK [G9P], 3.95; that for RVKLISNKVTETDNDPSCVHPIIK [G9V], 4.18. Consider RVKLISNKGTETDNDPSHVHPIIK [C18H], for which the protein stability index turned out to be 4.49. Same read-out and setting: the result for RVKLISNKGTETDNDPSVVHPIIK [C18V] reads 4.58. The same measure, in the same setting: the same measure for RVKLISNKGTETDNDPSMVHPIIK [C18M]: 4.19.

On to RVKLISNKGTETDNDPSLVHPIIK [C18L], for which the protein stability index amounted to 4.09. Same read-out and setting: the same measure for RVKLISNKGTETDNDPSFVHPIIK [C18F]: 3.79. On the same count and under the same terms, the same measure for RVKLISNKGTETDNDPSGVHPIIK [C18G]: 4.3; for RVKLISNKGTETDNDPSSVHPIIK [C18S]: 4.42; for RVKLISNKGTETDNDPSDVHPIIK [C18D]: 4.46.

In a further data set the parent is B2. The description is as above. The following applies: c terminus: a fixed tail appended.
As to AYKLSSEQFHEAASKMESTIKPRR [M1A], the protein stability index was 3.87. The same measure, in the same setting: the result for EYKLSSEQFHEAASKMESTIKPRR [M1E] reads 4.44; that for DYKLSSEQFHEAASKMESTIKPRR [M1D], 5.02. The same measure, in the same setting: the result for FYKLSSEQFHEAASKMESTIKPRR [M1F] reads 3.7; that for CYKLSSEQFHEAASKMESTIKPRR [M1C], 3.59.
